In patent US20090291083A1, “BARB4 TARGET, ANTIBODY DESIGNATED BARB4, BARB4 RELATED ANTIBODIES, AND METHODS OF MAKING AND USING SAME” (PATRYS LIMITED, priority 2008, published 2009):

How the values were obtained:
Format in all cases: binding, human
Healthy Tissues: Breast = experiment: Immunohistochemistry (IHC) with biotinylated BARB4 on healthy tissue; details: glandular, positive/negative
Procedure: (§1) Immunohistochemistry with human IgG on human tissue naturally results in high background staining. Accordingly, BARB4 was labeled with biotin to reduce background.
(§2) BARB4 antibody and an unrelated commercial IgG control (Chrompure IgG, Dianova) where labelled with “EZ-Link Maleimide-PEO Solid Phase Biotinylation Kit” from Pierce (Cat-# 21930) and Immunohistochemistry was initiated on different tumor tissue. Parrafin embedded tissue was first deparaffinized by treatment with Xylene 1 for 5 min, Xylene 2 for 5 min, followed by 100% Ethanol 1 for 5 min, 100% Ethanol 2 for 5 min, 70 ml Methanol+500 μl H2O2 for 7 min, 90% Ethanol 1 for 3 min, 90% Ethanol 2 for 3 min, 80% Ethanol 1 for 3 min, 80% Ethanol 2 for 3 min, 70% Ethanol 1 for 3 min, 70% Ethanol 2 for 3 min, and then washed three times with distilled H2O. (1 and 2 mean that the tissues were treated 2 times with the same alcohol, one after the another, in two different tanks.) Tissue was then heated in Citric acid, pH 5,5 in a water-bath at 99.9° C. for 20 min, placed in Tris/NaCl (Tris, 0.6 g/l and NaCl 8.1 g/l, pH 7.4) for 5 min, block with 0.5% BSA in PBS for 60 min, and then washed three times with Tris/NaCl (Tris, 0.6 g/l and NaCl 8.1 g/l, pH 7.4). Primary antibody (150 μl per microscope slide) was added, or a negative control biotinylated isotype matched control human antibody (Chrompure IgG, Dianova, Germany) or a positive controlanti-cytokeratin antibody, and incubated for 30 min in a humidified chamber at 37° C. Tissue was washed three times with Tris/NaCl (Tris, 0.6 g/l and NaCl 8.1 g/l, pH 7.4). Secondary antibody: (150 […]) was subsequently added and incubated for 30 min in a humidified chamber at room temperature (for biotinylated antibodies: NeurtrAvidin 1:100 in PBS), washed three times with Tris/NaCl (Tris, 0.6 g/l and NaCl 8.1 g/l, pH7.4), placed in PBS for 10 min. Tiusse was subsequently incubated with diaminobenzidine (0.05%)-hydrogen peroxide (0.02%) (150 μl per microscope slide) (Sigma, Taufkirchen, München, Germany) for 10 min, washed three times with H2O, washed once with distilled H2O, incubated with hematoxylin/eosin for 5 min, and placed under running tap water 10-15 min. Tissue was then washed again with distilled H2O, and the slides covered with Aquatex (Merck Bioscience).

Healthy Tissues: Colon = experiment: as above; details: glandular, positive/negative
Procedure: as §1, §2

[1] = system: Healthy Tissues: Esophagus; experiment: as above; details: epithelial, positive/negative
Procedure: as §1, §2

Healthy Tissues: Lung = experiment: as above; details: glandular, alveolar, positive/negative
Procedure: as §1, §2

[2] = system: Healthy Tissues: Pancreas; experiment: as above; details: glandular, positive/negative
Procedure: as §1, §2

Healthy Tissues: Stomach = experiment: as above; details: glandular, positive/negative
Procedure: as §1, §2

TAF 15 = experiment: Immunoprecipitation of cell extracts with BARB4 and Western blotting; details: MKN cell extracts
Procedure: To further validate BARB4 target protein TAF 15, BARB4 and a commercial TAF 15 antibody (anti-human TAFII p68, Santa Cruz Biotechnology, sc-81121) were analyzed for binding to BxPC-3, HEK 293, A549 and HeLa cell lines. In brief, cells were trypsinized with cell dissociation solution (Sigma C5789), resuspended in complete medium (RPMI 1640, PAA, E15-039, 10% Fetal bovine serum, PAA, A15-151 and 1% Glutamine, PAA, M11-004) and set on 2×10^5/ml. After 30 minutes on ice, cells were dispersed at 1 ml per FACS-tube and washed once with ice-cold PBS by centrifugation with 500 g and 4° C. Staining was done with BARB4 (100 ug/ml) or the commercial TAF 15 (25 μg/ml) IgG antibodies, control IgGs (IgG lambda, or mouse IgG), or without antibody in 200 μl PBS. Cells were incubated with 25 μg/ml antibody in 100 μl for 30 minutes on ice, then washed with ice cold PBS and secondary antibody (anti mouse IgG-FITC, dianova 115-095-008) was applied at a dilution of 1:50 in 200 μl per tube. After another 30 minutes of incubation in the dark, cells were washed twice with PBS and analyzed by FACS. […] BARB4 target protein TAF 15 validation was then analyzed by immunoprecipitation of MKNcell extracts with BARB4 and subsequent Western blotting with either BARB4 or anti-TAF 15 antibodies (Biomol, A300-308A; or Aviva, ARP30111_T100). […]

B1: BARB4: human IgG antibody produced by hybridoma DSMZ Deposit No. DSM ACC2876; heavy chain SEQ ID NOs:1, 3, 5, 7, light chain SEQ ID NO:9 (antibody, V domains shown)
VH: QVQLVESGGGVVQPGRSLRLSCAASGFRFTTHGMHWVRQAPGKGLEWVAVISYNGRNKYYADYVNGRFTISRDDSRDTVFLQMNSLRPEDTAMYYCAKVRGDGYGDYGYFDYWGHGTLVSVSS
VL: QSALTQPRSVSGSPGQSVTISCTGTYNYVSWYQQHPGKAPKLMIFDVSRRSSGVPDRFSGSKSGNTASLTISGLQAEDEADYYCCSYGGTYLYVFGTGTTVTVLGQ
Healthy Tissues: Breast
  Barb 4 +/−: 0/2
Healthy Tissues: Colon
  Barb 4 +/−: 0/3
[1]
  Barb 4 +/−: 0/1
Healthy Tissues: Lung
  Barb 4 +/−: 0/3
[2]
  Barb 4 +/−: 0/2
Healthy Tissues: Stomach
  Barb 4 +/−: 0/3
TAF 15; FIG. 9B, assay conditions may not be optimized
  detection of TAF15 in the immunoprecipitate by Western staining with BARB4 antibody: did not appear to detect TAF15
TAF 15; FIGS. 9A and 9C
  immunoprecipitation of TAF 15, Western staining with anti-TAF 15 antibodies: able to immunoprecipiate TAF 15
